Experimental data taken from article PMC2949612, “The effects of oligomerization on Saccharomyces cerevisiae Mcm4/6/7 function” (BMC Biochemistry, 2010).
Substitutions are numbered along the chain they refer to.

T1: Mcm4 (S. cerevisiae, UniProt P30665 1-933)
T1 construct: Mcm4, S. cerevisiae; the entire MCM4 ORF stands on pET11a-MCM4; also called minichromosome maintenance protein 4; source: purified (ammonium sulphate, SP Sepharose, heparin agarose, ssDNA Sepharose, Mono S)
T1 sequence (looked up): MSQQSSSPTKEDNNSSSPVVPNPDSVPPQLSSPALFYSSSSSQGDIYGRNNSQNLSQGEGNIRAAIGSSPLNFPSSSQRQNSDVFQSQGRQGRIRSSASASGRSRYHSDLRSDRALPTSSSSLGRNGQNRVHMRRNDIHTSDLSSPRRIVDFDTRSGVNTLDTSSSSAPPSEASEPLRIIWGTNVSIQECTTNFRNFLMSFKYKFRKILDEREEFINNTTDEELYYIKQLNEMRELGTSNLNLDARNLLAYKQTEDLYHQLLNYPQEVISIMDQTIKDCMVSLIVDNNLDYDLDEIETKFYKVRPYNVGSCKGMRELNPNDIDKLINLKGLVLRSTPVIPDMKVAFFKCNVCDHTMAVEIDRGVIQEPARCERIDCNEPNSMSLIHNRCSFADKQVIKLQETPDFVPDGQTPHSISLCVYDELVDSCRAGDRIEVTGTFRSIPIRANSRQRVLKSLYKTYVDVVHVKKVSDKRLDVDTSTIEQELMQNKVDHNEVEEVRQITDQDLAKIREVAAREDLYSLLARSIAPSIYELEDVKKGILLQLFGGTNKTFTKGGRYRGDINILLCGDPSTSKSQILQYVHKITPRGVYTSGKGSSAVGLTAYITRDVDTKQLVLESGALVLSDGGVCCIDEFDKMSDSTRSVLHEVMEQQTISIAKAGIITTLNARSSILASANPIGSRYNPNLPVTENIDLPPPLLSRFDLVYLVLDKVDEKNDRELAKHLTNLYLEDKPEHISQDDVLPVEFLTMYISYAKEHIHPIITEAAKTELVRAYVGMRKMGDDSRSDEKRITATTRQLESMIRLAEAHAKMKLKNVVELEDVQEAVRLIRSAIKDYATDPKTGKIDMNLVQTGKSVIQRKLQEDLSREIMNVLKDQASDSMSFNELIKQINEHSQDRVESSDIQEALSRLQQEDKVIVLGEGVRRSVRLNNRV

B1: Mcm4^R701A (natural protein, S. cerevisiae, UniProt P30665 1-933, looked up)
chain: T1 sequence (looked up) with R701A
notes: Mcm4, S. cerevisiae; entire MCM4 ORF with the SRF arginine R701 changed to alanine; Purification of the mutant is not described separately; also called 4^RA; Mcm4^RA; source: purified
B2: Mcm7 (natural protein, S. cerevisiae, UniProt P38132 1-845, looked up)
chain: MSAALPSIQLPVDYNNLFNEITDFLVTFKQDTLSSDATRNENEDENLDAENIEQHLLEKGPKYMAMLQKVANRELNSVIIDLDDILQYQNEKFLQGTQADDLVSAIQQNANHFTELFCRAIDNNMPLPTKEIDYKDDVLDVILNQRRLRNERMLSDRTNEIRSENLMDTTMDPPSSMNDALREVVEDETELFPPNLTRRYFLYFKPLSQNCARRYRKKAISSKPLSVRQIKGDFLGQLITVRGIITRVSDVKPAVEVIAYTCDQCGYEVFQEVNSRTFTPLSECTSEECSQNQTKGQLFMSTRASKFSAFQECKIQELSQQVPVGHIPRSLNIHVNGTLVRSLSPGDIVDVTGIFLPAPYTGFKALKAGLLTETYLEAQFVRQHKKKFASFSLTSDVEERVMELITSGDVYNRLAKSIAPEIYGNLDVKKALLLLLVGGVDKRVGDGMKIRGDINVCLMGDPGVAKSQLLKAICKISPRGVYTTGKGSSGVGLTAAVMKDPVTDEMILEGGALVLADNGICCIDEFDKMDESDRTAIHEVMEQQTISISKAGINTTLNARTSILAAANPLYGRYNPRLSPLDNINLPAALLSRFDILFLMLDIPSRDDDEKLAEHVTYVHMHNKQPDLDFTPVEPSKMREYIAYAKTKRPVMSEAVNDYVVQAYIRLRQDSKREMDSKFSFGQATPRTLLGIIRLSQALAKLRLADMVDIDDVEEALRLVRVSKESLYQETNKSKEDESPTTKIFTIIKKMLQETGKNTLSYENIVKTVRLRGFTMLQLSNCIQEYSYLNVWHLINEGNTLKFVDDGTMDTDQEDSLVSTPKLAPQTTASANVSAQDSDIDLQDA
notes: Mcm7, S. cerevisiae; also called minichromosome maintenance protein 7

Assays:
Details in all cases: both partners purified
Mcm6 = biological target: T2, Mcm6 (S. cerevisiae, UniProt P53091 1-1017); assay: SEC; 5.2 nmol each subunit mixed, 5 mg/ml, 16°C 30 min; Superose 6 10/300 GL, 20 mM Tris-HCl pH 7.5, 0.1 mM EDTA, 2 mM DTT, 100 mM NaCl, 10% glycerol; no nucleotide
T2 construct: Mcm6, S. cerevisiae; also called minichromosome maintenance protein 6
T2 sequence (P53091 whole entry): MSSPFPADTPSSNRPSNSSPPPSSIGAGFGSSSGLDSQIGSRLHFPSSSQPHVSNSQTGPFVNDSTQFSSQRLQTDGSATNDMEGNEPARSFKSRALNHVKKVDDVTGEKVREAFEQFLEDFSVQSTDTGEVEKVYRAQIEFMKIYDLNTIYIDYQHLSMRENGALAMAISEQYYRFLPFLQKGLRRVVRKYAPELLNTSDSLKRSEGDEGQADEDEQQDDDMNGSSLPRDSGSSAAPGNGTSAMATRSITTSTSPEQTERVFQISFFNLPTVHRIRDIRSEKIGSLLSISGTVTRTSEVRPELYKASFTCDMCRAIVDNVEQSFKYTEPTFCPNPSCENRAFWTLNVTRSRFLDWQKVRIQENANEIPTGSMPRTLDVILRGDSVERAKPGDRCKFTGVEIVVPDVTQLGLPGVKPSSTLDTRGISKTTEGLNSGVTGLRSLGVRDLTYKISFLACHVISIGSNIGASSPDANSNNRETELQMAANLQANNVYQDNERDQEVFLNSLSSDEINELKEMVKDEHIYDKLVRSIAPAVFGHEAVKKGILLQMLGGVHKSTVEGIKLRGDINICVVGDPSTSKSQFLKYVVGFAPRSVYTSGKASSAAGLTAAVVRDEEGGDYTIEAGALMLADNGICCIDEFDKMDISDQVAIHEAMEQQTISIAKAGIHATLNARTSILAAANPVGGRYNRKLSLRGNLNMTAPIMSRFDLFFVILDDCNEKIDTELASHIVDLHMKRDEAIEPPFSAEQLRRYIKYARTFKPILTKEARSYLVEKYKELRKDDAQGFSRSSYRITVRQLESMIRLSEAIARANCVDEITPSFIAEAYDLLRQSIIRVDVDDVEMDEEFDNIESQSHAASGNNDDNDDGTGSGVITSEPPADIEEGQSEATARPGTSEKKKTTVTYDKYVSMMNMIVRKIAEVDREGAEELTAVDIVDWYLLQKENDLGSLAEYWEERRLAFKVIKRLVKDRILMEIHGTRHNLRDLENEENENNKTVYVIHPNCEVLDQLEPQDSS

Mcm4^R701A = biological target: B1; assay: as above
Mcm4 = biological target: T1, Mcm4; assay: cross-linking; glutaraldehyde, 9 ug Mcm4/6/7 in 20 mM HEPES NaOH pH 8.4, 10 mM magnesium acetate, no nucleotide; 16°C 30 min then 2 min 37°C; 3.5% SDS-phosphate gel

binding result (Mcm6)	binding result (Mcm4^R701A)	binding result (Mcm4)	Binder
binds			B1
	binds	binds	B2
